As usually defined, the Kd is a measure of binding affinity in units of concentration. Low values mean a tighter complex, high ones a looser complex. The term stoichiometry N denotes a count of units in the complex or per binding partner.

Experiment [1] deals with X. albilineans Cas8f–Cas5f heterodimer (Xanthomonas albilineans). As to the kind of experiment: ITC; as the standard ITC but with 500 mM NaCl instead of 150 mM. A general note: ITC needs no label: the signal is the heat of the interaction.
In experiment [2] the target is X. albilineans Cas8f(K29E)–Cas5f heterodimer (Xanthomonas albilineans). In words: ITC; 250 μM AcrIF7 in the syringe titrated into 35 μM Cas8f–Cas5f in the cell; 20 mM Tris–HCl pH 7.5, 150 mM NaCl, 1 mM TCEP, 25°C; one-site binding model.
The target of experiment [3] is X. albilineans Cas8f(K248E)–Cas5f heterodimer (Xanthomonas albilineans). Described as above.
Experiment [4] deals with X. albilineans Cas8f–Cas5f heterodimer (Xanthomonas albilineans). The experiment is described as above.
Experiment [5] has as its target T1, X. albilineans Cas8f–Cas5f heterodimer (Xanthomonas albilineans).
T1 chain 1: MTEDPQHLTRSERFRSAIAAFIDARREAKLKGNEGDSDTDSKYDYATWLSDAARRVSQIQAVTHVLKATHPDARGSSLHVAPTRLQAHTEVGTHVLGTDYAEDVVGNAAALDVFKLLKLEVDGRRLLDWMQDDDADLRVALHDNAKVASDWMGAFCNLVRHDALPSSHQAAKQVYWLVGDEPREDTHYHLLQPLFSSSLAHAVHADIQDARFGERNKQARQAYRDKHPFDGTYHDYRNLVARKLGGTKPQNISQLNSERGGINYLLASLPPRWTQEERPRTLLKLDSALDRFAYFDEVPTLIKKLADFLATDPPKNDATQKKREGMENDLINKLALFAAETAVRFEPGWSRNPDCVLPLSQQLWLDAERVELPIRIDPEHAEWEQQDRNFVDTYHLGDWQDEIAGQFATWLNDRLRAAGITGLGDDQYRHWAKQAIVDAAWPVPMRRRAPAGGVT
T1 chain 2: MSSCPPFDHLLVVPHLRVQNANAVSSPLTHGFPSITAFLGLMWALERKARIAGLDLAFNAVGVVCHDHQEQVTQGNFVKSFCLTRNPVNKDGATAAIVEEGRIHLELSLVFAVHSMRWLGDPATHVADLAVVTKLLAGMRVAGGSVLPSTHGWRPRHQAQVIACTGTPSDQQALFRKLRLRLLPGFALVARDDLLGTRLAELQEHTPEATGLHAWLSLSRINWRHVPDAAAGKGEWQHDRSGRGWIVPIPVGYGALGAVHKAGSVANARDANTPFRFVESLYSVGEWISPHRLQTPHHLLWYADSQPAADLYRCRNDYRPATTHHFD
In words: ITC; 500 mM NaCl.

In the case of AcrIF7 (a.a. 1–67) (natural protein), in experiment [1], the fold reduction of the strength of the interaction at 500 mM NaCl against 150 mM NaCl is 2.7 fold. The dissociation constant (Kd) in experiment [2] came out at 327 nM; in experiment [3] it was 1870 nM; in experiment [4] it was 46 nM. In addition, the dH was -14.5 kcal/mol in experiment [2], -16 kcal/mol in experiment [3] and -17.1 kcal/mol in experiment [4]. The stoichiometry N came to 0.83 in experiment [2], 0.78 in experiment [3] and 0.78 in experiment [4].
As to AcrIF7 D57K (natural protein), in experiment [4], the Kd worked out at 333 nM, the dH is -12.7 kcal/mol and the stoichiometry N came to 0.77.
Taken in the same sequence, the figures for AcrIF7 E33K/E34K (natural protein) were 4850 nM, -9.5 kcal/mol and 0.9.
The matching figures for AcrIF7 E18K (natural protein): 49 nM, -19.6 kcal/mol and 0.88.
Taken in the same sequence, the figures for AcrIF7 D28K/D29K (natural protein) were 179 nM, -12.9 kcal/mol and 0.75.
In experiment [4], AcrIF7 E22K (natural protein) had a Kd of 50 nM, a dH of -15.6 kcal/mol and a stoichiometry N of 0.75.
The matching figures for AcrIF7 D13K (natural protein): 2450 nM, -14.2 kcal/mol and 0.72.
Regarding AcrIF7 E46K/E47K (natural protein), in experiment [4], the Kd is 46 nM, the dH is -17 kcal/mol and the stoichiometry N is 0.8.

B1: AcrIF7 (a.a. 1–67) (natural protein)
chain: MTTFTSIVTTNPDFGGFEFYVEAGQQFDDSAYEEAYGVSVPSAVVEEMNAKAAQLKDGEWLNVSHEA
In the case of B1, the Kd in experiment [5] stood at 124 nM.

(Values after publication PMC7515697 (2020).)
